# Measurements reported in patent publication US20230365711A1 (Hoffmann-La Roche, published 2023).
# Numbering of substitutions follows the chain as printed. Names may count otherwise.
# T1: huNABA-avi-his (hybrid protein N-A1-B3-A2: N and A1 domains of human BGP, B3 domain of human CEA, A2 domain … (human, biotinylated at the avi tag (in vivo, co-transfected biotin ligase)))
# T1 construct: also called NABA-avi-his reagent; biotinylated NABA
# T1 chain: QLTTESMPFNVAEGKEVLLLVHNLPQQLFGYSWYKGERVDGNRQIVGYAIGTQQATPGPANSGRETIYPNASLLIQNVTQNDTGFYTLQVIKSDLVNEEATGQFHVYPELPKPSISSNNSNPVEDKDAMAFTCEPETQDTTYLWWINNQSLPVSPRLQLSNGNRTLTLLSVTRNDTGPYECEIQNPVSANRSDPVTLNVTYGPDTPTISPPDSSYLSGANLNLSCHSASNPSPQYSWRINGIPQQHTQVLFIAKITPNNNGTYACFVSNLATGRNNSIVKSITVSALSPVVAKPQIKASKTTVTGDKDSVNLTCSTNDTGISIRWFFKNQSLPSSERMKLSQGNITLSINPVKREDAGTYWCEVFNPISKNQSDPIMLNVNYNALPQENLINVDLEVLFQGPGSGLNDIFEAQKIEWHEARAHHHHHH
# T2: human carcinoembryonic antigen (CEA), membrane-bound on cells (human, UniProt P06731 35-685)
# T2 construct: whole, on cells; also called CEACAM-5; CD66e
# T2 sequence (looked up): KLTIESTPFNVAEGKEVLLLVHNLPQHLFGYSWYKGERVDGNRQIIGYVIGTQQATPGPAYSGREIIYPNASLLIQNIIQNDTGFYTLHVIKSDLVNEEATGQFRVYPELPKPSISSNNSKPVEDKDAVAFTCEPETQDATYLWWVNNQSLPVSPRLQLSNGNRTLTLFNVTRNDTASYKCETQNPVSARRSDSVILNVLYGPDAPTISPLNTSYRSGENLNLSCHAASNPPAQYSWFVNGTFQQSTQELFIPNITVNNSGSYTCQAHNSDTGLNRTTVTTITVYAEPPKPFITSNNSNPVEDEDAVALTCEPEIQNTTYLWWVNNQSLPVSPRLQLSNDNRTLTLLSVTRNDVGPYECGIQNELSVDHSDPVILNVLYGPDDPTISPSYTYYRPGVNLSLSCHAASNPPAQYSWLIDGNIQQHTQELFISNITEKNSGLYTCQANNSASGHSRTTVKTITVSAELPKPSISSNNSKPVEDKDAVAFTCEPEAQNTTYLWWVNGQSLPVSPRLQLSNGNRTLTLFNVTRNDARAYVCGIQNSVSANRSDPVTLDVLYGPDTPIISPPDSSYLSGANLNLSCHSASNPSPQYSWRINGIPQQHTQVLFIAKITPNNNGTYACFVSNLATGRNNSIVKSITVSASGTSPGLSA
# B1: CH1A1A (Y98A/D99Y) 2F1 (antibody, V domains shown)
# VH: QVQLVQSGAEVKKPGASVKVSCKASGYTFTEFGMNWVRQAPGQGLEWMGWINTKTGEATYVEEFKGRVTFTTDTSTSTAYMELRSLRSDDTAVYYCARWDFAYYVEAMDYWGQGTTVTVSS
# VL: DIQMTQSPSSLSASVGDRVTITCKASAAVGTYVAWYQQKPGKAPKLLIYSASYRKRGVPSRFSGSGSGTDFTLTISSLQPEDFATYYCHQYYTYPLFTFGQGTKLEIKR
# notes: also called CH1A1A (98/99); CH1A1A (Y98A/D99Y)x2F1
# B2: anti-CEA antibody with heavy chain CH1A1C and light chain 2F1 (antibody, V domains shown)
# VH: B1 VH with A9P, V11L, F70M, A102Y, Y103D
# VL: B1 VL
# B3: CH1A1B (Y98A/D99Y) 2F1 (antibody, V domains shown)
# VH: B1 VH with Q3K, V5Q, F70M
# VL: B1 VL
# B4: anti-CEA antibody with heavy chain CH1A1F and light chain 2F1 (antibody, V domains shown)
# VH: B1 VH with F70M, M81L, A102Y, Y103D
# VL: B1 VL
# B5: anti-CEA antibody with heavy chain CH1A1D and light chain 2F1 (antibody, V domains shown)
# VH: B1 VH with A16E, S17T, V20I, F70M, A102Y, Y103D
# VL: B1 VL
# B6: antibody with affinity matured heavy chain variable region CH7A rF9 and affinity matured light chain variable region CL1A rH11 (antibody, V domains shown)
# VH: QVQLVQSGSELKKPGASVKVSCKASGYTFTEYGMNWVRQAPGQGLEWMGWINTKSGEATYVEEFKGRFVFSLDTSVSTAYLQISSLKAEDTAVYYCARWDFYDYVEAMDYWGQGTTVTVSS
# VL: DIQMTQSPSSLSASVGDRVTITCKASQTVSANVAWYQQKPGKAPKLLIYLASYRYRGVPSRFSGSGSGTDFTLTISSLQPEDFATYYCHQYYTYPLFTFGQGTKLEIK
# notes: The suffix G2(1) is not explained; also called CH7ArF9 CL1A rH11; CH7Arf9, CL1A rH11G2(1)
# B7: PR1A3 (Fab, V domains shown)
# VH: B6 VH with Y32F, S55T
# VL: B6 VL with T28N, S30G, A31T, L50S, R56S
# notes: also called PR1A3 wt/wt; pMS22
# B8: anti-CEA Fab with unmatured heavy chain CH7A and affinity matured light chain CL1A pAC18 (Fab, V domains shown)
# VH: B6 VH with Y32F, S55T
# VL: B1 VL
# notes: Fab format, bacterially expressed; also called CH7A + CL1A pAC18
# B9: humanized PR1A3 antibody with heavy chain variable region CH7A and light chain variable region 2F1 (antibody, V domains shown)
# VH: B6 VH with Y32F, S55T
# VL: B1 VL
# notes: Measured in the bivalent form; also called CH7Ax2F1; parental antibody CH7A
# B10: antibody with affinity matured heavy chain variable region CH7A rF9 and parent light chain variable region CL1A (antibody, human IgG1, V domains shown)
# VH: B6 VH
# VL: B6 VL with T28N, S30G, A31T, L50S, R56S
# notes: also called CH7A rF9, CL1A
# B11: anti-CEA Fab with affinity matured heavy chain CH7A H4E9 and affinity matured light chain CL1A pAC18 (Fab, V domains shown)
# VH: B6 VH with Y32F, S55T, V61I
# VL: B1 VL
# notes: Fab format, bacterially expressed; also called CH7A H4E9 and CL1A pAC18
# B12: antibody with heavy chain CH7A (Y98A/D99Y) and light chain 2F1 (antibody, V domains shown)
# VH: B6 VH with Y32F, S55T, Y102A, D103Y
# VL: B1 VL
# notes: Bivalent form; also called double mutant (Y98A/D99Y)
# Assays:
# [1] = target: T1, huNABA-avi-his (hybrid protein …); assay: Proteon SPR, antibody analyte on biotinylated NABA (Neutravidin chip)
# Source text: (§1) Proteon (Biacore) sensorgrams were obtained for the binding of the combined framework and CDR-H3 variants to the CEA antigen-harbouring chimeric protein NABA. […] The precursor clone 5L1A10 and the parental antibody CH7A were included for direct comparison. All antibodies tested in this assay had 2F1 as the light chain FIG. 25.
# [2] = target: T1, huNABA-avi-his (hybrid protein …); assay: Proteon SPR, antibody analyte on biotinylated NABA (Neutravidin chip); column Ka (M)
# Source text: as §1
# [3] = target: T2, human carcinoembryonic antigen (CEA), …; assay: FACS on MKN45 cells
# [4] = target: T1, huNABA-avi-his (hybrid protein …); assay: Proteon SPR, antibody analyte on biotinylated NABA (Neutravidin chip)
# [5] = target: T1, huNABA-avi-his (hybrid protein …); assay: Proteon SPR, antibody analyte on biotinylated NABA (Neutravidin chip); column Ka (M)
# [6] = target: T2, human carcinoembryonic antigen (CEA), …; assay: flow cytometry on MKN45 cells, IgG1/kappa
# Description: An affinity matured heavy chain variable region construct, CH7A rF9, and an affinity matured light chain variable region construct, CL1A rH11, were paired with the parent light chain variable region construct and the heavy chain variable region construct, respectively, and with each other. All antibodies were converted into human IgG1/kappa and binding to the CEA-positive cell-line MKN45 was measured by flow cytometry. […] The matured light chain shifts the EC50 values to lower numbers, whereas the matured heavy chains (rF9 in FIG. 6, and rB9 in FIG. 15) shift the total fluorescence signal intensity in a flow-cytometry measurement. […] The combination of these two chains increases the affinity even further.
# [7] = target: T1, huNABA-avi-his (hybrid protein …); assay: Biacore, column Affinity, CDR-L1 and CDR-L2 rows; antigen not named on the sheet, NABA-avi-his per paragraph 230
# [8] = target: T1, huNABA-avi-his (hybrid protein …); assay: Biacore, Fab on immobilized NABA-avi-his; column Monovalent Affinity
# [9] = target: T1, huNABA-avi-his (hybrid protein …); assay: Biacore, column Affinity, CDR-H3 rows; antigen not named on the sheet, NABA-avi-his per paragraph 230
# [10] = target: T1, huNABA-avi-his (hybrid protein …); assay: Biacore, column Affinity, CDR-H1 and CDR-H2 rows; antigen not named on the sheet, NABA-avi-his per paragraph 230
# [11] = target: T1, huNABA-avi-his (hybrid protein …); assay: Biacore SPR, Fab; antigen not named on the sheet, NABA-avi-his per paragraph 230
# [12] = target: T1, huNABA-avi-his (hybrid protein …); assay: Proteon SPR, antibody analyte on biotinylated NABA (Neutravidin chip)
# Source text: (§2) Shown in FIG. 22 are Proteon (Biacore) sensorgrams obtained for the binding of the CDR-H3 antibody variants to the CEA antigen-harbouring chimeric protein NABA. […] The affinity matured precursor clone 5HFF12 and the parental antibody CH7A were included for direct comparison. All antibodies tested in this assay had 2F1 as the light chain. […] The relative affinity of each, measured in the bivalent form, is as follows: 5HFF12>CH7A (Y98A/D99Y)>CH7A (Y98A)>CH7A>CH7A (E102Q)>CH7A (D99Y)>CH7A (D99H)>CH7A (A103T)>CH7A (V101F)>CH7A (W95Y).
# [13] = target: T1, huNABA-avi-his (hybrid protein …); assay: Proteon SPR, antibody analyte on biotinylated NABA (Neutravidin chip); column Ka (M)
# Source text: as §2
# [14] = target: T1, huNABA-avi-his (hybrid protein …); assay: Biacore on immobilized NABA-avi-his; Bivalent Affinity
binder,measurement,setting,value
B1,Kd,[1],0.537 nM
same,kon,[2],628000 M⁻¹ s⁻¹
B2,EC50 (read off the curve),[3],~1 µg/mL
same,Kd,[4],13 nM
same,kon,[5],44900 M⁻¹ s⁻¹
B3,Kd,[1],0.507 nM
same,kon,[2],711000 M⁻¹ s⁻¹
B4,EC50 (read off the curve),[3],~1 µg/mL
same,Kd,[4],7.58 nM
same,kon,[5],70800 M⁻¹ s⁻¹
B5,EC50 (read off the curve),[3],~1 µg/mL
same,Kd,[4],9.28 nM
same,kon,[5],53100 M⁻¹ s⁻¹
B6,EC50 (read off the curve),[6],~0.5 µg/mL
B7,Kd,[7],3680 nM
same,Kd,[8],3680 nM
same,koff,[8],0.0248 s⁻¹
same,kon,[8],6740 M⁻¹ s⁻¹
same,Kd,[9],3680 nM
same,Kd,[10],3680 nM
B8,Kd,[7],220 nM
same,Kd,[8],220 nM
same,koff,[8],0.0207 s⁻¹
same,kon,[8],95700 M⁻¹ s⁻¹
same,Kd,[11],216 nM
B9,Kd,[1],1.97 nM
same,kon,[2],369000 M⁻¹ s⁻¹
same,Kd,[12],1.07 nM
same,Kd,[4],1.84 nM
same,kon,[13],132000 M⁻¹ s⁻¹
same,kon,[5],122000 M⁻¹ s⁻¹
same,Kd,[14],0.952 nM
same,koff,[14],0.00041 s⁻¹
same,kon,[14],423000 M⁻¹ s⁻¹
B10,EC50 (read off the curve),[6],~0.7 µg/mL
B11,Kd,[8],96 nM
same,koff,[8],0.0035 s⁻¹
same,kon,[8],36400 M⁻¹ s⁻¹
same,Kd,[11],96 nM
B12,Kd,[1],0.465 nM
same,kon,[2],481000 M⁻¹ s⁻¹
same,Kd,[12],0.186 nM
same,kon,[13],236000 M⁻¹ s⁻¹
